B1: FAM116A (parent)
chain: TVHEVDIFRCFCPVFLHSQMLWEL
B2: MYBL2 (parent)
chain: FPNRTDQQCQYRWLRVLNPDLVKG

Variants of: B1
Assay: protein stability index of a GFP-peptide fusion (GPS, HEK-293T) (PSI 1-6); higher = more stable
Conditions: c terminus: a fixed tail appended
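Further: lentivirally expressed fusions sorted by FACS into six bins by GFP to DsRed ratio, PSI derived from sequencing read proportions per bin multiplied by bin number.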

| Variant | protein stability index |
| --- | --- |
| TVHEVDIFRCFCPVFLHSQMLWEW [L24W] | 1.83 |
| TVHEVDIFRCFCPVFLHSQMLWEY [L24Y] | 3.09 |

Variants of: B2
Assay: as above
Conditions: c terminus: a fixed tail appended

| Variant | protein stability index |
| --- | --- |
| GPNRTDQQCQYRWLRVLNPDLVKG [F1G] | 3.23 |
| TPNRTDQQCQYRWLRVLNPDLVKG [F1T] | 2.75 |
| RPNRTDQQCQYRWLRVLNPDLVKG [F1R] | 2.79 |
| APNRTDQQCQYRWLRVLNPDLVKG [F1A] | 2.54 |
| HPNRTDQQCQYRWLRVLNPDLVKG [F1H] | 2.44 |
| WPNRTDQQCQYRWLRVLNPDLVKG [F1W] | 2 |
| DPNRTDQQCQYRWLRVLNPDLVKG [F1D] | 3.24 |
| MPNRTDQQCQYRWLRVLNPDLVKG [F1M] | 2.37 |
| QPNRTDQQCQYRWLRVLNPDLVKG [F1Q] | 2.76 |
| EPNRTDQQCQYRWLRVLNPDLVKG [F1E] | 2.56 |
| KPNRTDQQCQYRWLRVLNPDLVKG [F1K] | 2.14 |
| CPNRTDQQCQYRWLRVLNPDLVKG [F1C] | 2.24 |
| SPNRTDQQCQYRWLRVLNPDLVKG [F1S] | 2.51 |
| LPNRTDQQCQYRWLRVLNPDLVKG [F1L] | 2.08 |
| NPNRTDQQCQYRWLRVLNPDLVKG [F1N] | 2.47 |
| IPNRTDQQCQYRWLRVLNPDLVKG [F1I] | 2.6 |
| VPNRTDQQCQYRWLRVLNPDLVKG [F1V] | 2.31 |
| YPNRTDQQCQYRWLRVLNPDLVKG [F1Y] | 1.95 |
| PPNRTDQQCQYRWLRVLNPDLVKG [F1P] | 3 |
| FPNRRDQQCQYRWLRVLNPDLVKG [T5R] | 1.73 |
| FPNRKDQQCQYRWLRVLNPDLVKG [T5K] | 2.29 |
| FPNRFDQQCQYRWLRVLNPDLVKG [T5F] | 1.49 |
| FPNREDQQCQYRWLRVLNPDLVKG [T5E] | 2.29 |

| Variant | protein stability index |
| --- | --- |
| FPNRVDQQCQYRWLRVLNPDLVKG [T5V] | 1.8 |
| FPNRQDQQCQYRWLRVLNPDLVKG [T5Q] | 1.76 |
| FPNRYDQQCQYRWLRVLNPDLVKG [T5Y] | 1.95 |
| FPNRSDQQCQYRWLRVLNPDLVKG [T5S] | 1.86 |
| FPNRDDQQCQYRWLRVLNPDLVKG [T5D] | 1.98 |
| FPNRGDQQCQYRWLRVLNPDLVKG [T5G] | 1.53 |
| FPNRMDQQCQYRWLRVLNPDLVKG [T5M] | 2.33 |
| FPNRCDQQCQYRWLRVLNPDLVKG [T5C] | 1.57 |
| FPNRIDQQCQYRWLRVLNPDLVKG [T5I] | 2.29 |
| FPNRHDQQCQYRWLRVLNPDLVKG [T5H] | 1.74 |
| FPNRADQQCQYRWLRVLNPDLVKG [T5A] | 2.73 |
| FPNRPDQQCQYRWLRVLNPDLVKG [T5P] | 2.05 |
| FPNRLDQQCQYRWLRVLNPDLVKG [T5L] | 1.64 |
| FPNRWDQQCQYRWLRVLNPDLVKG [T5W] | 2 |
| FPNRNDQQCQYRWLRVLNPDLVKG [T5N] | 2.01 |
| FPNRTDQQCEYRWLRVLNPDLVKG [Q10E] | 2.23 |
| FPNRTDQQCGYRWLRVLNPDLVKG [Q10G] | 1.48 |
| FPNRTDQQCDYRWLRVLNPDLVKG [Q10D] | 2.04 |
| FPNRTDQQCRYRWLRVLNPDLVKG [Q10R] | 1.52 |
| FPNRTDQQCNYRWLRVLNPDLVKG [Q10N] | 1.76 |
| FPNRTDQQCLYRWLRVLNPDLVKG [Q10L] | 2.34 |
| FPNRTDQQCKYRWLRVLNPDLVKG [Q10K] | 1.88 |
| FPNRTDQQCIYRWLRVLNPDLVKG [Q10I] | 1.79 |

| Variant | protein stability index |
| --- | --- |
| FPNRTDQQCAYRWLRVLNPDLVKG [Q10A] | 1.45 |
| FPNRTDQQCCYRWLRVLNPDLVKG [Q10C] | 2.83 |
| FPNRTDQQCMYRWLRVLNPDLVKG [Q10M] | 1.47 |
| FPNRTDQQCHYRWLRVLNPDLVKG [Q10H] | 2.35 |
| FPNRTDQQCPYRWLRVLNPDLVKG [Q10P] | 2.18 |
| FPNRTDQQCSYRWLRVLNPDLVKG [Q10S] | 2.48 |
| FPNRTDQQCFYRWLRVLNPDLVKG [Q10F] | 1.75 |
| FPNRTDQQNQYRWLRVLNPDLVKG [C9N] | 2.18 |
| FPNRTDQQHQYRWLRVLNPDLVKG [C9H] | 2.88 |
| FPNRTDQQDQYRWLRVLNPDLVKG [C9D] | 2.19 |
| FPNRTDQQIQYRWLRVLNPDLVKG [C9I] | 2.16 |
| FPNRTDQQAQYRWLRVLNPDLVKG [C9A] | 2 |
| FPNRTDQQKQYRWLRVLNPDLVKG [C9K] | 2.76 |
| FPNRTDQQYQYRWLRVLNPDLVKG [C9Y] | 2.49 |
| FPNRTDQQTQYRWLRVLNPDLVKG [C9T] | 2.9 |
| FPNRTDQQMQYRWLRVLNPDLVKG [C9M] | 2.45 |
| FPNRTDQQLQYRWLRVLNPDLVKG [C9L] | 2.26 |
| FPNRTDQQRQYRWLRVLNPDLVKG [C9R] | 2.85 |
| FPNRTDQQSQYRWLRVLNPDLVKG [C9S] | 2.45 |
| FPNRTDQQQQYRWLRVLNPDLVKG [C9Q] | 2.24 |
| FPNRTDQQEQYRWLRVLNPDLVKG [C9E] | 1.86 |
| FPNRTDQQPQYRWLRVLNPDLVKG [C9P] | 2.5 |
| FPNRTDQQVQYRWLRVLNPDLVKG [C9V] | 2.05 |

| Variant | protein stability index |
| --- | --- |
| FPNRTDQQGQYRWLRVLNPDLVKG [C9G] | 1.97 |
| FPNRTDQQWQYRWLRVLNPDLVKG [C9W] | 2.51 |
| FPNRTDQQFQYRWLRVLNPDLVKG [C9F] | 2.38 |
| FPNRTWQQCQYRWLRVLNPDLVKG [D6W] | 1.75 |
| FPNRTHQQCQYRWLRVLNPDLVKG [D6H] | 1.94 |
| FPNRTNQQCQYRWLRVLNPDLVKG [D6N] | 1.8 |
| FPNRTMQQCQYRWLRVLNPDLVKG [D6M] | 1.27 |
| FPNRTQQQCQYRWLRVLNPDLVKG [D6Q] | 2.91 |
| FPNRTRQQCQYRWLRVLNPDLVKG [D6R] | 1.41 |
| FPNRTYQQCQYRWLRVLNPDLVKG [D6Y] | 1.61 |
| FPNRTCQQCQYRWLRVLNPDLVKG [D6C] | 1.45 |
| FPNRTKQQCQYRWLRVLNPDLVKG [D6K] | 2.06 |
| FPNRTTQQCQYRWLRVLNPDLVKG [D6T] | 1.84 |
| FPNRTAQQCQYRWLRVLNPDLVKG [D6A] | 1.7 |
| FPNRTLQQCQYRWLRVLNPDLVKG [D6L] | 1.97 |
| FPNRTEQQCQYRWLRVLNPDLVKG [D6E] | 1.61 |
| FPNRTFQQCQYRWLRVLNPDLVKG [D6F] | 2.36 |
| FPNRTIQQCQYRWLRVLNPDLVKG [D6I] | 2.07 |
| FPNRTPQQCQYRWLRVLNPDLVKG [D6P] | 1.81 |
| FPNRTGQQCQYRWLRVLNPDLVKG [D6G] | 1.51 |
| FPNRTVQQCQYRWLRVLNPDLVKG [D6V] | 1.98 |
| FPNRTSQQCQYRWLRVLNPDLVKG [D6S] | 1.89 |
| FPNRTDQDCQYRWLRVLNPDLVKG [Q8D] | 2.09 |

From the supplement of paper PMC10567573
